US11325966

Legend:
Assay in all cases: cell-based or functional assay
[1] = target: HIV-1 Env of pseudovirus 1054_07_TC4_1499 (HIV-1)
[2] = target: HIV-1 Env of pseudovirus Ce1176_A3 (HIV-1)
[3] = target: HIV-1 Env of pseudovirus Du172.17 (HIV-1)
[4] = target: HIV-1 Env of pseudovirus 263-8 (HIV-1)
[5] = target: HIV-1 Env of pseudovirus 9004SS_A3_4 (HIV-1)
[6] = target: HIV-1 Env of pseudovirus BJOX025000.01.1 (HIV-1)
[7] = target: HIV-1 Env of pseudovirus 246F C1G (HIV-1)
[8] = target: HIV-1 Env of pseudovirus R2184.c04 (HIV-1)
[9] = target: HIV-1 Env of pseudovirus X1254_c3 (HIV-1)
[10] = target: HIV-1 Env of pseudovirus 89-F1_2_25 (HIV-1)
[11] = target: HIV-1 Env of pseudovirus CNE17 (HIV-1)
[12] = target: HIV-1 Env of pseudovirus T257-31 (HIV-1)
[13] = target: HIV-1 Env of pseudovirus 0815.v3.c3 (HIV-1)
[14] = target: HIV-1 Env of pseudovirus Ce1086_B2 (HIV-1)
[15] = target: HIV-1 Env of pseudovirus BJOX009000.02.4 (HIV-1)
[16] = target: HIV-1 Env of pseudovirus C4118.c09 (HIV-1)
[17] = target: HIV-1 Env of pseudovirus ZM109F.PB4 (HIV-1)
[18] = target: HIV-1 Env of pseudovirus BF1266.431a (HIV-1)
[19] = target: HIV-1 Env of pseudovirus Ce0682_E4 (HIV-1)
[20] = target: HIV-1 Env of pseudovirus CNE52 (HIV-1)
[21] = target: HIV-1 Env of pseudovirus 620345.c01 (HIV-1)
[22] = target: HIV-1 Env of pseudovirus TRO.11 (HIV-1)
[23] = target: HIV-1 Env of pseudovirus Ce2060_G9 (HIV-1)
[24] = target: HIV-1 Env of pseudovirus 6540.v4.c1 (HIV-1)
[25] = target: HIV-1 Env of pseudovirus CNE30 (HIV-1)
[26] = target: HIV-1 Env of pseudovirus Q769.d22 (HIV-1)
[27] = target: HIV-1 Env of pseudovirus 1006_11_C3_1601 (HIV-1)
[28] = target: HIV-1 Env of pseudovirus HIV-16055-2.3 (HIV-1)
[29] = target: HIV-1 Env of pseudovirus Ce0393_C3 (HIV-1)
[30] = target: HIV-1 Env of pseudovirus HIV-16845-2.22 (HIV-1)
[31] = target: HIV-1 Env of pseudovirus BJOX028000.10.3 (HIV-1)
[32] = target: HIV-1 Env of pseudovirus CNE53 (HIV-1)
[33] = target: HIV-1 Env of pseudovirus 249M B10 (HIV-1)
[34] = target: HIV-1 Env of pseudovirus 1056_10_TA11_1826 (HIV-1)
[35] = target: HIV-1 Env of pseudovirus ZM249M.PL1 (HIV-1)
[36] = target: HIV-1 Env of pseudovirus Ce703010054_2A2 (HIV-1)
[37] = target: HIV-1 Env of pseudovirus 928-28 (HIV-1)
[38] = target: HIV-1 Env of pseudovirus 211-9 (HIV-1)
[39] = target: HIV-1 Env of pseudovirus TRJO4551.58 (HIV-1)
[40] = target: HIV-1 Env of pseudovirus Ce2010_F5 (HIV-1)

Substance: BG18 IgG (354BG18) (antibody)
- IC50 in TZM-bl assay [1]: 0.005 mg/L
- IC80 in TZM-bl assay [1]: 0.022 mg/L
- IC50 in TZM-bl assay [2]: 0.004 mg/L
- IC80 in TZM-bl assay [2]: 0.012 mg/L
- IC50 in TZM-bl assay [3]: > 30 mg/L
- IC80 in TZM-bl assay [3]: > 30 mg/L
- IC50 in TZM-bl assay [4]: 1.38 mg/L
- IC80 in TZM-bl assay [4]: 7.55 mg/L
- IC50 in TZM-bl assay [5]: 0.005 mg/L
- IC80 in TZM-bl assay [5]: 0.056 mg/L
- IC50 in TZM-bl assay [6]: > 30 mg/L
- IC80 in TZM-bl assay [6]: > 30 mg/L
- IC50 in TZM-bl assay [7]: 0.034 mg/L
- IC80 in TZM-bl assay [7]: 0.257 mg/L
- IC50 in TZM-bl assay [8]: > 30 mg/L
- IC80 in TZM-bl assay [8]: > 30 mg/L
- IC50 in TZM-bl assay [9]: 0.004 mg/L
- IC80 in TZM-bl assay [9]: 0.012 mg/L
- IC50 in TZM-bl assay [10]: > 30 mg/L
- IC80 in TZM-bl assay [10]: > 30 mg/L
- IC50 in TZM-bl assay [11]: 0.02 mg/L
- IC80 in TZM-bl assay [11]: 0.109 mg/L
- IC50 in TZM-bl assay [12]: > 30 mg/L
- IC80 in TZM-bl assay [12]: > 30 mg/L
- IC50 in TZM-bl assay [13]: 0.16 mg/L
- IC80 in TZM-bl assay [13]: 5.96 mg/L
- IC50 in TZM-bl assay [14]: > 30 mg/L
- IC80 in TZM-bl assay [14]: > 30 mg/L
- IC50 in TZM-bl assay [15]: 24.4 mg/L
- IC80 in TZM-bl assay [15]: > 30 mg/L
- IC50 in TZM-bl assay [16]: > 30 mg/L
- IC80 in TZM-bl assay [16]: > 30 mg/L
- IC50 in TZM-bl assay [17]: > 30 mg/L
- IC80 in TZM-bl assay [17]: > 30 mg/L
- IC50 in TZM-bl assay [18]: > 30 mg/L
- IC80 in TZM-bl assay [18]: > 30 mg/L
- IC50 in TZM-bl assay [19]: > 30 mg/L
- IC80 in TZM-bl assay [19]: > 30 mg/L
- IC50 in TZM-bl assay [20]: 0.012 mg/L
- IC80 in TZM-bl assay [20]: 0.045 mg/L
- IC50 in TZM-bl assay [21]: > 30 mg/L
- IC80 in TZM-bl assay [21]: > 30 mg/L
- IC80 in TZM-bl assay [22]: 0.002 mg/L
- IC50 in TZM-bl assay [23]: > 30 mg/L
- IC80 in TZM-bl assay [23]: > 30 mg/L
- IC50 in TZM-bl assay [24]: 28.2 mg/L
- IC80 in TZM-bl assay [24]: > 30 mg/L
- IC50 in TZM-bl assay [25]: 0.019 mg/L
- IC80 in TZM-bl assay [25]: 0.059 mg/L
- IC50 in TZM-bl assay [26]: > 30 mg/L
- IC80 in TZM-bl assay [26]: > 30 mg/L
- IC80 in TZM-bl assay [27]: 0.004 mg/L
- IC50 in TZM-bl assay [28]: > 30 mg/L
- IC80 in TZM-bl assay [28]: > 30 mg/L
- IC50 in TZM-bl assay [29]: > 30 mg/L
- IC80 in TZM-bl assay [29]: > 30 mg/L
- IC50 in TZM-bl assay [30]: 0.019 mg/L
- IC80 in TZM-bl assay [30]: 0.09 mg/L
- IC50 in TZM-bl assay [31]: 0.474 mg/L
- IC80 in TZM-bl assay [31]: 14.9 mg/L
- IC50 in TZM-bl assay [32]: 0.003 mg/L
- IC80 in TZM-bl assay [32]: 0.011 mg/L
- IC50 in TZM-bl assay [33]: > 30 mg/L
- IC80 in TZM-bl assay [33]: > 30 mg/L
- IC50 in TZM-bl assay [34]: 0.007 mg/L
- IC80 in TZM-bl assay [34]: 0.045 mg/L
- IC50 in TZM-bl assay [35]: > 30 mg/L
- IC80 in TZM-bl assay [35]: > 30 mg/L
- IC50 in TZM-bl assay [36]: > 30 mg/L
- IC80 in TZM-bl assay [36]: > 30 mg/L
- IC50 in TZM-bl assay [37]: 0.761 mg/L
- IC80 in TZM-bl assay [37]: 3.93 mg/L
- IC50 in TZM-bl assay [38]: 1.3 mg/L
- IC80 in TZM-bl assay [38]: 5.53 mg/L
- IC50 in TZM-bl assay [39]: 3.34 mg/L
- IC80 in TZM-bl assay [39]: 26.9 mg/L
- IC50 in TZM-bl assay [40]: > 30 mg/L
- IC80 in TZM-bl assay [40]: > 30 mg/L

Substance: PGT121 (antibody)
- IC50 in TZM-bl assay [1]: 0.041 mg/L
- IC80 in TZM-bl assay [1]: 0.299 mg/L
- IC80 in TZM-bl assay [2]: 0.063 mg/L
- IC50 in TZM-bl assay [3]: 0.062 mg/L
- IC80 in TZM-bl assay [3]: 0.531 mg/L
- IC50 in TZM-bl assay [4]: 0.647 mg/L
- IC80 in TZM-bl assay [4]: 4.68 mg/L
- IC50 in TZM-bl assay [5]: 0.006 mg/L
- IC50 in TZM-bl assay [6]: > 10 mg/L
- IC80 in TZM-bl assay [6]: > 10 mg/L
- IC50 in TZM-bl assay [7]: 0.082 mg/L
- IC80 in TZM-bl assay [7]: 0.363 mg/L
- IC50 in TZM-bl assay [8]: > 10 mg/L
- IC80 in TZM-bl assay [8]: > 10 mg/L
- IC80 in TZM-bl assay [9]: 0.085 mg/L
- IC50 in TZM-bl assay [10]: > 10 mg/L
- IC80 in TZM-bl assay [10]: > 10 mg/L
- IC50 in TZM-bl assay [11]: 3.96 mg/L
- IC80 in TZM-bl assay [11]: > 10 mg/L
- IC50 in TZM-bl assay [12]: > 10 mg/L
- IC80 in TZM-bl assay [12]: > 10 mg/L
- IC50 in TZM-bl assay [13]: 0.017 mg/L
- IC80 in TZM-bl assay [13]: 0.085 mg/L
- IC50 in TZM-bl assay [14]: 0.003 mg/L
- IC50 in TZM-bl assay [15]: 9 mg/L
- IC80 in TZM-bl assay [15]: > 10 mg/L
- IC50 in TZM-bl assay [16]: > 10 mg/L
- IC80 in TZM-bl assay [16]: > 10 mg/L
- IC50 in TZM-bl assay [17]: 8.92 mg/L
- IC80 in TZM-bl assay [17]: > 10 mg/L
- IC50 in TZM-bl assay [18]: > 10 mg/L
- IC80 in TZM-bl assay [18]: > 10 mg/L
- IC50 in TZM-bl assay [19]: > 10 mg/L
- IC80 in TZM-bl assay [19]: > 10 mg/L
- IC50 in TZM-bl assay [20]: 4.91 mg/L
- IC80 in TZM-bl assay [20]: > 10 mg/L
- IC50 in TZM-bl assay [21]: > 10 mg/L
- IC80 in TZM-bl assay [21]: > 10 mg/L
- IC80 in TZM-bl assay [22]: 0.037 mg/L
- IC50 in TZM-bl assay [23]: > 10 mg/L
- IC80 in TZM-bl assay [23]: > 10 mg/L
- IC50 in TZM-bl assay [24]: > 10 mg/L
- IC80 in TZM-bl assay [24]: > 10 mg/L
- IC50 in TZM-bl assay [25]: 0.088 mg/L
- IC80 in TZM-bl assay [25]: 0.288 mg/L
- IC50 in TZM-bl assay [26]: > 10 mg/L
- IC80 in TZM-bl assay [26]: > 10 mg/L
- IC50 in TZM-bl assay [27]: 0.002 mg/L
- IC80 in TZM-bl assay [27]: 0.008 mg/L
- IC50 in TZM-bl assay [28]: 0.772 mg/L
- IC80 in TZM-bl assay [28]: 7.99 mg/L
- IC50 in TZM-bl assay [29]: > 10 mg/L
- IC80 in TZM-bl assay [29]: > 10 mg/L
- IC50 in TZM-bl assay [30]: 8.51 mg/L
- IC80 in TZM-bl assay [30]: > 10 mg/L
- IC50 in TZM-bl assay [31]: > 10 mg/L
- IC80 in TZM-bl assay [31]: > 10 mg/L
- IC50 in TZM-bl assay [32]: 0.014 mg/L
- IC80 in TZM-bl assay [32]: 0.062 mg/L
- IC50 in TZM-bl assay [33]: > 10 mg/L
- IC80 in TZM-bl assay [33]: > 10 mg/L
- IC50 in TZM-bl assay [34]: 0.034 mg/L
- IC80 in TZM-bl assay [34]: 0.148 mg/L
- IC50 in TZM-bl assay [35]: > 10 mg/L
- IC80 in TZM-bl assay [35]: > 10 mg/L
- IC50 in TZM-bl assay [36]: > 10 mg/L
- IC80 in TZM-bl assay [36]: > 10 mg/L
- IC50 in TZM-bl assay [37]: > 10 mg/L
- IC80 in TZM-bl assay [37]: > 10 mg/L
- IC50 in TZM-bl assay [38]: 0.866 mg/L
- IC80 in TZM-bl assay [38]: 6.63 mg/L
- IC50 in TZM-bl assay [39]: 0.802 mg/L
- IC80 in TZM-bl assay [39]: > 10 mg/L
- IC50 in TZM-bl assay [40]: > 10 mg/L
- IC80 in TZM-bl assay [40]: > 10 mg/L
